# In patent US12269859B2, “Synthetic immune receptors and methods of use thereof” (Angeles Therapeutics, Inc., priority 2016, dated 2025):
# System: target antigen-expressing cell line
# Experiment: Jurkat NFAT-GFP assay, coculture with target cell lines expressing the respective target antigen (summary Table 10A)
# Type: cell-based, human
# Design: key: The signs +/−, +, 2+ etc. after the name of the cell lines indicate the relative degree of positivity on the Jurkat-NFAT-GFP assay as measured by the % GFP positive cells; +: relative degree of positivity on the Jurkat-NFAT-GFP assay as measured by the % GFP positive cells; 2+: relative degree of positivity on the Jurkat-NFAT-GFP assay as measured by the % GFP positive cells
# Details: relative % GFP positive cells; for NFAT-GFP ASSAY Positive Cell lines: RAJI: SIR-expressing Jurkat-NFAT-GFP cells cocultured with RAJI
# Outline: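 Read-out: % GFP+ cells by FACS. SIR-transduced, puromycin-selected Jurkat NFAT-GFP (IL-2 promoter reporter) cocultured ~4–18 h with target line, E:T ~1:2; parental cells as control; graded +/−, +, 2+ relative to parental.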
molecule,measurement,setting,value
030217-E05 (protein) MALPVTALLLPLALLLHAARPDEIVLTQSPATLSLSPGERATLSCSASSSVSYMHWYQQKPGQAPRLLIYDTSKLASGIPARFSGSGSGTDFTLTISSLEPEDVAVYYCFQGSVYPFTFGQGTKLEIKRGGGGSGGGGSGGGGSQVQLQESGPGLVKPSQTLSLTCTVSGGSISTSGMGVGWIRQHPGKGLEWIGHIWWDDDKRYNPALKSRVTISVDTSKNQFSLKLSSVTAADTAVYYCARMELWSYYFDYWGQGTLVTVSSLEGKPIPNPLLGLDSTGSGEDLKNVFPPEVAVFEPSKAEIAHTQKATLVCLATGFYPDHVELSWWVNGKEVHSGVCTDPQPLKEQPALNDSRYCLSSRLRVSATFWQNPRNHFRCQVQFYGLSENDEWTQDRAKPVTQIVSAEAWGRADCGITSASYHQGVLSATILYEILLGKATLYAVLVSALVLMAMVKRKDSRGRAKRSGSGATNFSLLKQAGDVEENPGPTSTMALPVTALLLPLALLLHAARPDEIVLTQSPGSLAVSPGERVTMSCKSSQSVFFSSSQKNYLAWYQQIPGQSPRLLIYWASTRESGVPDRFTGSGSGTDFTLTISSVQPEDLAIYYCHQYLSSRTFGQGTKLEIKRGGGGSGGGGSGGGGSQVQLQQPGAEVVKPGASVKMSCKASGYTFTSYYIHWIKQTPGQGLEWVGVIYPGNDDISYNQKFQGKATLTADKSSTTAYMQLSSLTSEDSAVYYCAREVRLRYFDVWGQVTTVTVSSTREQKLISEEDGSGIQNPDPAVYQLRDSKSSDKSVCLFTDFDSQTNVSQSKDSDVYITDKCVLDMRSMDFKSNSAVAWSNKSDFACANAFNNSIIPEDTFFPSSDVPCDVKLVEKSFETDTNLNFQNLSVIGFRILLLKVAGFNLLMTLRLWSSRAKRSGSGVKQTLNFDLLKLAGDVESNPGPSRGHMTEYKPTVRLATRDDVPRAVRTLAAAFADYPATRHTVDPDRHIERVTELQELFLTRVGLDIGKVWVADDGAAVAVWTTPESVEAGAVFAEIGPRMAELSGSRLAAQQQMEGLLAPHRPKEPAWFLATVGVSPDHQGKGLGSAVVLPGVEAAERAGVPAFLETSAPRNLPFYERLGFTVTADVEVPEGPRTWCMTRKPGA,NFAT-GFP ASSAY Positive Cell lines: RAJI,,RAJI (+)
"041216 C02 (protein, Synthetic polynucleotide encoding a SIR) MALPVTALLLPLALLLHAARPDEIVLTQSPATLSLSPGERATLSCSASSSVSYMHWYQQKPGQAPRLLIYDTSKLASGIPARFSGSGSGTDFTLTISSLEPEDVAVYYCFQGSVYPFTFGQGTKLEIKRGGGGSGGGGSGGGGSQVQLQESGPGLVKPSQTLSLTCTVSGGSISTSGMGVGWIRQHPGKGLEWIGHIWWDDDKRYNPALKSRVTISVDTSKNQFSLKLSSVTAADTAVYYCARMELWSYYFDYWGQGTLVTVSSLEGKPIPNPLLGLDSTGSGEDLKNVFPPEVAVFEPSKAEIAHTQKATLVCLATGFYPDHVELSWWVNGKEVHSGVCTDPQPLKEQPALNDSRYCLSSRLRVSATFWQNPRNHFRCQVQFYGLSENDEWTQDRAKPVTQIVSAEAWGRADCGITSASYHQGVLSATILYEILLGKATLYAVLVSALVLMAMVKRKDSRGRAKRSGSGATNFSLLKQAGDVEENPGPTSMALPVTALLLPLALLLHAARPDIQMTQSPATIENTSLSASVGDRVTITCRASQGISSWLTWYQQKPEKAPKSLIYAASSLQSGVPSRFSGSGSGTDFTLTISSLQPEDFATYYCQQYDSYPITFGQGTRLEIKGGGGSGGGGSGGGGSQVQLQQWGAGLLKPSETLSLTCAVYGGSFSAYYWSWIRQPPGKGLEWIGDINHGGGTNYNPSLKSRVTISVDTSKNQFSLKLNSVTAADTAVYYCASLTAYWGQGSLVTVSSTREQKLISEEDGSGIQNPDPAVYQLRDSKSSDKSVCLFTDFDSQTNVSQSKDSDVYITDKCVLDMRSMDFKSNSAVAWSNKSDFACANAFNNSIIPEDTFFPSSDVPCDVKLVEKSFETDTNLNFQNLSVIGFRILLLKVAGFNLLMTLRLWSSRAKRSGSGVKQTLNFDLLKLAGDVESNPGPSRGHMTEYKPTVRLATRDDVPRAVRTLAAAFADYPATRHTVDPDRHIERVTELQELFLTRVGLDIGKVWVADDGAAVAVWTTPESVEAGAVFAEIGPRMAELSGSRLAAQQQMEGLLAPHRPKEPAWFLATVGVSPDHQGKGLGSAVVLPGVEAAERAGVPAFLETSAPRNLPFYERLGFTVTADVEVPEGPRTWCMTRKPGA",NFAT-GFP ASSAY Positive Cell lines: L428,SIR-expressing Jurkat-NFAT-GFP cells cocultured with L428,L428 (+/−)
"102616-D06 (protein, Synthetic Immune Receptor (SIR)) MALPVTALLLPLALLLHAARPDVQMIQTPDSLAVSLGQRATISCRASESVDNYGISFMHWYQQKPGQSPKLLIYRASNLESGIPARFSGSGSRTDFTLTINPVETDDVATYYCQQNNKDPPTFGGGTKLEIKLEGKPIPNPLLGLDSTGSGEDLKNVFPPEVAVFEPSKAEIAHTQKATLVCLATGFYPDHVELSWWVNGKEVHSGVCTDPQPLKEQPALNDSRYCLSSRLRVSATFWQNPRNHFRCQVQFYGLSENDEWTQDRAKPVTQIVSAEAWGRADCGITSASYHQGVLSATILYEILLGKATLYAVLVSALVLMAMVKRKDSRGRAKRSGSGATNFSLLKQAGDVEENPGPTSMDWIWRILFLVGAATGAHSFEGGGGSQVQLQQSGAELVKPGASVKISCKASGYAFSSYWMNWVKQRPGKGLEWIGQIYPGDGDTTYNGKFKGKATLTADKSSSTVYMQLNSLTSEDSAVYFCVRYYYGSSGYFDYWGQGTTLTVSSTREQKLISEEDGSGIQNPDPAVYQLRDSKSSDKSVCLFTDFDSQTNVSQSKDSDVYITDKCVLDMRSMDFKSNSAVAWSNKSDFACANAFNNSIIPEDTFFPSSDVPCDVKLVEKSFETDTNLNFQNLSVIGFRILLLKVAGFNLLMTLRLWSSRAKRSGSGVKQTLNFDLLKLAGDVESNPGPSRGHMTEYKPTVRLATRDDVPRAVRTLAAAFADYPATRHTVDPDRHIERVTELQELFLTRVGLDIGKVWVADDGAAVAVWTTPESVEAGAVFAEIGPRMAELSGSRLAAQQQMEGLLAPHRPKEPAWFLATVGVSPDHQGKGLGSAVVLPGVEAAERAGVPAFLETSAPRNLPFYERLGFTVTADVEVPEGPRTWCMTRKPGA",NFAT-GFP ASSAY Positive Cell lines: LAN5,SIR-expressing Jurkat-NFAT-GFP cells cocultured with LAN5,LAN5 (+)
010417-B04 (protein) MALPVTALLLPLALLLHAARPLEGKPIPNPLLGLDSTGSGEDLKNVFPPEVAVFEPSKAEIAHTQKATLVCLATGFYPDHVELSWWVNGKEVHSGVCTDPQPLKEQPALNDSRYCLSSRLRVSATFWQNPRNHFRCQVQFYGLSENDEWTQDRAKPVTQIVSAEAWGRADCGITSASYHQGVLSATILYEILLGKATLYAVLVSALVLMAMVKRKDSRGRAKRSGSGATNFSLLKQAGDVEENPGPTSTMALPVTALLLPLALLLHAARPDEIVLTQSPATLSLSPGERATLSCSASSSVSYMHWYQQKPGQAPRLLIYDTSKLASGIPARFSGSGSGTDFTLTISSLEPEDVAVYYCFQGSVYPFTFGQGTKLEIKRGGGGSGGGGSGGGGSQVQLQESGPGLVKPSQTLSLTCTVSGGSISTSGMGVGWIRQHPGKGLEWIGHIWWDDDKRYNPALKSRVTISVDTSKNQFSLKLSSVTAADTAVYYCARMELWSYYFDYWGQGTLVTVSSTREAAAKDDIVMTQSPDSLTVSLGERTTINCKSSQSVLDSSKNKNSLAWYQQKPGQPPKLLLSWASTRESGIPDRFSGSGSGTDFTLTIDSLQPEDSATYYCQQSAHFPITFGQGTRLEIKGGGGSGGGGSGGGGSQVQLVQSGAEVKKPGASVKVSCKASGYTFTNYGMNWVKQAPGQGLKWMGWINTYTGEPTYADDFKGRVTMTSDTSTSTAYLELHNLRSDDTAVYYCARWSWSDGYYVYFDYWGQGTTVTVSSTREQKLISEEDGSGIQNPDPAVYQLRDSKSSDKSVCLFTDFDSQTNVSQSKDSDVYITDKCVLDMRSMDFKSNSAVAWSNKSDFACANAFNNSIIPEDTFFPSSDVPCDVKLVEKSFETDTNLNFQNLSVIGFRILLLKVAGFNLLMTLRLWSSRAKRSGSGVKQTLNFDLLKLAGDVESNPGPSRGHMTEYKPTVRLATRDDVPRAVRTLAAAFADYPATRHTVDPDRHIERVTELQELFLTRVGLDIGKVWVADDGAAVAVWTTPESVEAGAVFAEIGPRMAELSGSRLAAQQQMEGLLAPHRPKEPAWFLATVGVSPDHQGKGLGSAVVLPGVEAAERAGVPAFLETSAPRNLPFYERLGFTVTADVEVPEGPRTWCMTRKPGA,NFAT-GFP ASSAY Positive Cell lines: HL60,SIR-expressing Jurkat-NFAT-GFP cells cocultured with HL60,+/−
same,NFAT-GFP ASSAY Positive Cell lines: NALM6,SIR-expressing Jurkat-NFAT-GFP cells cocultured with NALM6,+
same,NFAT-GFP ASSAY Positive Cell lines: RAJI,,"RAJI (+), NALM6"
